± gives the half width of the 95% confidence interval.
How the values were obtained:
[1] = folding stability dG unfold from trypsin proteolysis; higher = more stable
Outline: (§1)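 Digests were run with trypsin and chymotrypsin at 11 concentrations in threefold dilutions, plus a no-protease condition, on designed mini-proteins in a PA-tagged cDNA display construct. The mini-proteins were under 80 residues, had no cysteine, and were kept only when AlphaFold2 dimer inter-PAE was above 15. After sequencing, Bayesian fitting of the counts gave K50, from which unfolding free energy was derived against a sequence-predicted unfolded-state K50 and a shared folded-state K50, per protease or combined.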

[2] = folding stability dG unfold from chymotrypsin proteolysis; higher = more stable
Outline: as §1

[3] = folding stability dG unfold (combined trypsin and chymotrypsin); higher = more stable
Outline: as §1

Sequence	folding stability dG unfold [1] [kcal/mol]	folding stability dG unfold [2] [kcal/mol]	folding stability dG unfold [3] [kcal/mol]
SAGGSAKPVKVDTLVLTAPFESKEEAEKAVEEFAKAVAEKLPKDVKVEVEVKYDPETKTFTAVVKASAGGSA [r15_981_TrMRF]	2.23 ± 0.093	2.368 ± 0.018	2.34 ± 0.051
SAGGSAKRVITIGNDEDQERVQEEAEDNGVKKRPIPGDWDDFLSNLQDNFPEIDRIVIPNGREFEISAGGSA [r15_712_TrROS]	-0.659 ± 0.32	-1.27 ± 0.32	-0.953 ± 0.44
SAGGSAKRVIVIGSKEERERAREAAEKENLEVVEIEGPVEEALAKLKELFPEIDEIVIVLPEEEEESAGGSA [r15_712_TrROS_Hall]	0.68 ± 0.14	0.768 ± 0.14	0.899 ± 0.19
SAGGSAKSLTLTVEITLPDGSTVRIEAEIEEKDGYLVIKVTIYNEDGEKVAEFTLVLKLPPPPPEPSAGGSA [r15_263_TrROS_Hall]	2.84 ± 0.47	4.42 ± 0.2	3.76 ± 0.66
SAGGSAKTIEITLEDGSKVTITEVKDGYIRIYVSEEAKEALKKLGLEEVDEENNVITLPLEKLKKLSAGGSA [r15_984_TrROS_Hall]	1.22 ± 0.052	1.86 ± 0.045	1.62 ± 0.1
SAGGSAKTITIEVKVEKTKDGKIKKGEIVKVEIEVDEKTKKVKIKIYNKNGELIAEIEIELSPEDLSAGGSA [r15_134_TrROS_Hall]	1.34 ± 0.21	2.95 ± 0.16	2.81 ± 0.39
SAGGSAKVKIIVTYNDGKKEEIIFDIPENYEISEVEKIAKKIAKNIAKKKNLPNVNIKVEKIEPLESAGGSA [r15_463_TrMRF]	2.41 ± 0.047	3.39 ± 0.06	3.09 ± 0.074
SAGGSAKWVLVRIELEKGGKPLEFYQRVKAKEPELDIKIPPGIEEEGFKILRIEVEEISPEELEKESAGGSA [r15_853_TrMRF]	0.864 ± 0.04	1.32 ± 0.18	1.18 ± 0.15
SAGGSALDPGKPVRVTVNLRVYRPLPDGTVKTFPSATVDLPVEEVLDLAKALPKEYTVTVDSIVVDSAGGSA [r15_833_TrMRF]	0.249 ± 0.14	0.663 ± 0.17	0.513 ± 0.18
SAGGSALEVKPGAGNTLTVYTPLPEDIPISEVIEELKKKYPNITAETDETSDGVAVVTLTLPPGLGSAGGSA [r15_1047_JUSTAS]	0.984 ± 0.051	0.401 ± 0.25	0.724 ± 0.12
SAGGSALKDFPLEEVEKVILVDLPDGKPALLVLLKGPPVVVLYPLESGKPIFIDAPLEEVLEFLLSSAGGSA [r15_810_TrMRF]	2.68 ± 0.05	2.892 ± 0.014	2.83 ± 0.044
SAGGSALKIHPDEKVLVKLKNTKKPVEAKVVKVEKLPNNKWVFYVEVKLNGKKVKIPVDGKDVVVASAGGSA [r15_62_TrMRF]	2.55 ± 0.2	2.38 ± 0.07	2.45 ± 0.23
SAGGSALKNSTLRITVERGNVPFTVEVKLKSVVVDLESGKVDVELPEEFKKLFKGPVKILSLEIPDSAGGSA [r15_710_TrMRF]	0.884 ± 0.057	1.82 ± 0.11	1.53 ± 0.17
SAGGSALLEALKKLAEELGLEVELEEVRVETETRTETRTLPDGRTETRTETEVRVEVKVTVRPKPASAGGSA [r15_561_TrROS_Hall]	2.59 ± 0.075	2.72 ± 0.1	2.71 ± 0.082
SAGGSALPIETPSDGVVPYTDPVTGKTYTVTFRRDEGKTSFRVEEPESSATREVTEPVSVTEAVLTSAGGSA [r15_234_JUSTAS]	-0.219 ± 0.12	0.069 ± 0.13	0.000309 ± 0.084
SAGGSALPPDAPFTVEREVPFTLPDGALVTLYYNPETGTVLVRFYPPDGGEVRVEAKAEEALALLSSAGGSA [r15_2_TrMRF]	1.17 ± 0.019	1.34 ± 0.06	1.31 ± 0.039
SAGGSAMAIVEYDPDNRVRAIVYFPGEKRVALVEVDDDTATVTAVYDLSDDGVATYLDEATFEIGGSAGGSA [r2_60_TrMRF]	0.896 ± 0.048	0.87 ± 0.043	0.922 ± 0.046
SAGGSAMEELKEKVLEAWKKLTPDTPVTIKEINPEKKEITIETTSEEAKEKLKKAAKEMGIKIKIKSAGGSA [r15_196_JUSTAS]	0.71 ± 0.27	1.28 ± 0.33	0.63 ± 0.39
SAGGSAMEIEVTLTDPALLEALIAELPYPVEVSEDPTDPSVTRVTLRTETSAEEVREAVARALGLESAGGSA [r15_118_JUSTAS]	0.732 ± 0.037	1.27 ± 0.06	1.07 ± 0.081
SAGGSAMEIVAVEKGDNTVTLLLRDPETGELYTATFHFIPGSKTVHATVTFPDGSTATFTFDATALSAGGSA [r15_1055_TrMRF]	2.82 ± 0.09	4.32 ± 0.068	4.01 ± 0.12
SAGGSAMERVTITLPDGRELTIERFPEEPNRFVLTFPDGRRLEFEFESPEEGLRAALELVLAGKEGSAGGSA [r15_38_TrMRF]	3.34 ± 0.075	4.13 ± 0.042	3.91 ± 0.06

Sequence	folding stability dG unfold [1] [kcal/mol]	folding stability dG unfold [2] [kcal/mol]	folding stability dG unfold [3] [kcal/mol]
SAGGSAMFMFELTIPPNAKIPPGYKLKIRFPNGKEEEYKFNNGPIKIWFYMDPDGNIQLDLEVEKKSAGGSA [r15_992_TrROS]	2.97 ± 0.09	4.9 ± 0.14	4.35 ± 0.15
SAGGSAMIEVKIEVPDDASEEEKAELAEKIKKEIKASGVEPTENGIPVKKSLENVEVKVTFLKKKKSAGGSA [r15_717_JUSTAS]	-0.469 ± 0.2	0.074 ± 0.33	-0.196 ± 0.38
SAGGSAMITLEDIKALGPDNPIRTFPETGLVFVERPGELTLYKFDPKTNTVTKLKTFNSPEEKEKLSAGGSA [r15_6_JUSTAS]	0.405 ± 0.035	1.15 ± 0.083	0.863 ± 0.069
SAGGSAMKEGKPAVEVEVTVLIELSAEEIAKLLGKEIKEGDTVLITVKVRVYPDGSVEIEIRVEKLSAGGSA [r15_91_TrROS_Hall]	2.87 ± 0.15	3.19 ± 0.17	3.08 ± 0.17
SAGGSAMKEITIEVDGKTVRVKVYFKDTGKVVERTFPKGTSVEELAKELEEEFGKDVEIVEVEEVPSAGGSA [r15_544_TrROS_Hall]	2.43 ± 0.11	3.57 ± 0.11	3.24 ± 0.15
SAGGSAMKIELENAKILDIKPTPDGKKVIFIELPSGKIIAVYEDNKVAVRSKKDPSVKPEDADPVFSAGGSA [r15_692_TrMRF]	0.374 ± 0.07	1.17 ± 0.046	0.892 ± 0.11
SAGGSAMKITYKPPSGETTVHPIPPGLTPEERRALAEELAKALQEKTGDPNVTVEFDPATGEITVASAGGSA [r15_33_JUSTAS]	1.33 ± 0.034	-0.0618 ± 0.15	0.84 ± 0.11
SAGGSAMKIVEKKTVTLTLPDGREVTVTLTKVEVDGETYYVLTVTDKDTGKTYTFVFKPGQSLEDLSAGGSA [r15_75_TrROS_Hall]	3.17 ± 0.092	4.67 ± 0.083	4.39 ± 0.2
SAGGSAMKLKLTFVADSPEQAEQLAEEYTRLNPELFPGEKDYPLEIEVYVLVAPPLVPPSPEELAGSAGGSA [r15_663_TrMRF]	1.23 ± 0.051	2.12 ± 0.27	1.69 ± 0.27
SAGGSAMKLTAETTDPGSDRFEATIYDPSDSGGDSVVSFESEEELEAFIKNLPSSVASVSLVPTSPSAGGSA [r15_589_JUSTAS]	0.983 ± 0.017	0.378 ± 0.035	0.728 ± 0.033
SAGGSAMKPDDYVVIKIEIENMSEEEIAKKLADELKKLFPDVEVKVTVEKEEDGRYRVTIEVVLKKSAGGSA [r15_916_TrROS_Hall]	1.83 ± 0.056	3.34 ± 0.15	2.83 ± 0.26
SAGGSAMKPGQKLLVKNKKTNKIYEITFDKDTGKVYIHNKKTGKTYEFDSLEDALKKMGFEPVKVESAGGSA [r15_500_TrROS_Hall]	1.43 ± 0.078	2.45 ± 0.08	2.28 ± 0.16
SAGGSAMKVEIVLKVPGDEMLDIEVDEEFPVVDQTIDKETGIVTVLLEGDPEKAEEIAKEIAEKLGSAGGSA [r15_662_TrMRF]	0.6 ± 0.069	0.299 ± 0.044	0.511 ± 0.1
SAGGSAMKVIVTVKILDKGEVKTLTEEEAKKYLEEHPEEVKEVEVETTVESDATESFTDIDLNGLKSAGGSA [r15_99_JUSTAS]	-0.185 ± 0.21	0.462 ± 0.047	0.416 ± 0.23
SAGGSAMLIRFVRDDKTVELRPFSSIEEARAFLEKGPVEEIEPREAPGGERVTFRAKLPDGEVLVESAGGSA [r15_632_JUSTAS]	-0.466 ± 0.23	-0.743 ± 0.33	-0.542 ± 0.15
SAGGSAMLLIKITIETKDGEKYEIVVEAESEEEALAALKEKARELFPELSEEDVKIVDIEVYELEESAGGSA [r15_220_TrROS_Hall]	4.58 ± 0.25	4.25 ± 0.088	4.29 ± 0.13
SAGGSAMMELEIEIKVEGMTEEELRELAERLAAELTPEGWKVVAVRVERVDEEEGVVRVTVVVEPVSAGGSA [r15_96_TrROS_Hall]	4.31 ± 0.35	3.83 ± 0.16	4.18 ± 0.27
SAGGSAMPDNMKPVGSIPMVYLVPDGWIMRINYEYWKNPESGMWMINMDIEVFPLPKNDPELLKAISAGGSA [r15_207_TrROS]	2.42 ± 0.18	2.65 ± 0.093	2.62 ± 0.18
SAGGSAMPEVKVEVEIIERDPENEDYVLVRIKVEVRFKTEDGEEVEVREERELLVFPSEEELKKALSAGGSA [r15_1019_TrROS_Hall]	2.02 ± 0.064	1.82 ± 0.048	1.89 ± 0.33
SAGGSAMPILTDTVYEIPVDRSPDETEEEIKEYLKELLLKKLPPGTEVKLEVKFDPETGTVTVKVVSAGGSA [r15_739_JUSTAS]	1.96 ± 0.12	0.972 ± 0.037	1.58 ± 0.12
